Assay results published in patent US20050085416A1, “Biologically active complex” (priority 2002, published 2005).
Several values for one entry are separate records, joined by “and”; a condition that tells them apart may be missing. Equal values may be shown once. Entries after “also recorded” stand apart in the source; their conditions may differ. Read-outs that look alike come from different tables or passages of the source.

Columns and labels:
[1] = cited from earlier work; for calcium binding: point mutants of bovine α-lactalbumin
[2] = Ca2+ titration in the presence of chromophoric chelator quin 2; assay type: binding; conditions: for Ca2+ binding: quin 2 titration; for Ka, calcium association constant: 2 mM Tris/HCl, chelator quin 2; for Kd: read-out: KD, calcium
Description: To study the Ca^2+ binding equilibrium, the proteins listed in table 1 including the D87A BAMLET obtained as described in Example 7, and HAMLET, was titrated with calcium in the presence of a chromophoric chelator, quin 2, for which the absorbance at 263 nm decreases (approx. 85%) upon Ca^2+-binding. The method relies on competition for calcium between the protein and chelator, and can be used to quantitate high affinity sites (ca. 10^7-5·10^9 M^−1 at low salt, and ca. 5 10^5-1·10^8 M^−1 at 0.15 NaCl) when quin 2 is the chelator. The exact concentration of the chelator solution (in the range of 25-30 μM) was calculated from the absorbance at 239.5 nm in the presence of excess calcium (using ε239.5=4.2×10^4 L mol^−1 cm^−1 for quin 2). Lyophilised protein was dissolved in calcium free (<1 μM Ca^2+) chelator solution at a concentration of 25-30 μM. The absorbance at 263 nm (A263) was recorded for the protein/chelator solution using a UV/Vis 920 spectrophotometer (GBC Scientific Equipment Pty Ltd, Victoria, Australia). Calcium solution (3 mM CaCl2 in 2 mM Tris/HCl, pH 7.5, with or without 0.15 M NaCl) was added in portions of 4 μl. A263 was recorded after each calcium addition.
A more concentrated Ca^2+ stock (10 mM) was used at the end of the titrations of the proteins in 0.15 M NaCl. The data was analysed by least squares fitting directly to the measured quantity, absorbance versus total calcium concentration, using the CaLigator software (Andre and Linse, 2002).

L1210 leukaemia cells [3] = experiment: Apoptosis bioassay: L1210 cell viability by Trypan blue exclusion; assay type: cell-based, mouse; conditions: for loss of cell viability: L1210, 0.3 mg/ml; for LD50: L1210 cells; for apoptosis induction / biological activity: apoptosis assay
Description: The different agonists were dissolved in cell culture medium, without fetal calf serum, and added to the cells (final volume 1 ml per well). Plates were incubated at 37° C. in 5% CO2 atmosphere and 100 μl of fetal calf serum was added to each well after 30 minutes. Cell culture medium served as a control.
Cell viability was determined by Trypan blue exclusion after six hours of incubation. For analysis, 30 μl of the cell suspension was mixed with 30 μl of a 0.2% trypan blue solution and the number of stained cells (dead cells) per 100 cells was determined by interference contrast microscopy (Ortolux II, Leitz Wetzlar, Germany).

L1210 leukaemia cells [4] = experiment: DNA fragmentation (oligonucleosome length fragments, agarose gel) in L1210 cells; assay type: cell-based, mouse; conditions: L1210, six hours
Description: Oligonucleosome length DNA fragments were detected by agarose gel electrophoresis. The cell suspension remaining after trypan blue (970 μl, 2×10^6/ml) was lysed in 5 mM Tris, 20 mM EDTA, 0.5% Triton X-100 pH 8.0 at 4° C. for 1 hour and centrifuged at 13,000×g for 15 minutes. DNA was ethanol precipitated over night in −20° C., treated with proteinase K and RNAse, loaded on 1.8% agarose gels and electrophoresed with constant voltage set at 50V over night. DNA fragments were visualised with ethidium bromide using a 305 nm UV-light source and photographed using Polaroid type 55 positive-negative film.

[5] = Spectroscopy (near UV CD, fluorescence, ANS) after addition of excess calcium; assay type: binding; conditions: excess calcium (1 mM), no spectral changes
Description: The products were then subjected to spectroscopic analysis. The proteins or protein fractions were dialyzed against doubly distilled water and lyophilised. Stock solutions were prepared by dissolving the lyophilised material in 10 mM potassium phosphate buffer at pH 7.5, and concentrations determined as the absorbance at 280 nm (A/l=C (mg/ml) where 1 mg/ml of α-lactalbumin is 70 μM). The spectra were recorded at the appropriate dilution.
Circular Dichroism (CD) spectra were obtained on a JASCO J-720 spectro-polarimeter with a JASCO PTC-343 Peltier type thermostated cell holder. Quartz cuvettes were used with 1 cm path length and spectra were recorded at 25° C. between 240 and 320 nm. […] Six scans were recorded and averaged for each spectrum. Baseline spectra were recorded with pure buffer in the cuvette and substracted from the protein spectra.
Fluorescence spectra were recorded at 25° C. on a Perkin Elmer LS-50B spectrometer using a quartz cuvette with 1 cm excitation path length. Intrinsic (tryptophan) fluorescence emission spectra were recorded between 305 and 530 nm (step 1 nm) with excitation at 295 nm. […] ANS fluorescence emission spectra were recorded at 25° C. on a Perkin Elmer LS-50B spectrometer using a quartz cuvette with 1 cm excitation path length, between 400 and 600 nm (step 1 nm) with excitation at 385 nm. […]

[6] = 5 mM Tris, 0.1 mM EDTA, pH 7.2, 298 K, CD 270 nm
[7] = 10 mM Tris/HCl, no salt, pH 7.5, 298 K, ITC
[8] = L1210, six hours, 0.3 mg/ml, reduced from 99%
[9] = L1210, 6 hours' exposure, 0.5 mg/ml, from 98%

Molecule: α-lac bovine: bovine α-lactalbumin
- Ka [1, 6]: 2.5e+08 M⁻¹
- Ka [1, 7]: 4.3e+08 M⁻¹
- Ka ([1]; 10 mM Tris/HCl, pH 8, DSC): 2.85e+08 M⁻¹
- Ka ([1]; 10 mM ammonium bicarbonate, pH 7.8, EGTA, fluorescence): 4.8e+07 M⁻¹
- Ka ([1]; 20 mM Tris, pH 7.5, 298 K, fluorescence, Hummel & Dryer method): 2.7e+06 M⁻¹
- Ka ([1]; 20 mM Tris, pH 7.5, 298 K, microcalorimetry): 2.5e+06 M⁻¹
- Ka ([1]; 50 mM Hepes, pH 8, 293 K, fluorescence): 4e+08 M⁻¹
- Ka ([1]; 50 mM Hepes, pH 8, 310 K, fluorescence): 2e+07 M⁻¹
- Ka ([1]; H2O, 100 mM KCl, pH 7, 294 K, EDTA, 43Ca-NMR): 2e+07 M⁻¹
- Ka ([1]; H2O, 100 mM KCl, pH 8, 294-298 K, EGTA 13C-NMR): 2e+07 M⁻¹

Molecule: BAMLET
- Ca2+ binding [2]: shown to bind Ca^2+
- loss of cell viability (L1210 leukaemia cells [3]): equally sensitive
- cell viability (L1210 leukaemia cells [3]; L1210, 6 hours' exposure, reduced from 98%, concentration not given): 4%
- cell viability (L1210 leukaemia cells [3]; [8]): 12%
- LD50 (L1210 leukaemia cells [3]): 0.2 mg/mL
- DNA fragmentation (L1210 leukaemia cells [4]): stimulated the formation of the characteristic DNA ladder; also recorded: induces DNA fragmentation

B1: HAMLET (protein, UniProt P00709 20-142, looked up)
Alpha-lactalbumin: KQFTKCELSQLLKDIDGYGGIALPELICTMFHTSGYDTQAIVENNESTEYGLFQISNKLWCKSSQVPQSRNICDISCDKFLDDDITDDIMCAKKILDIKGIDYWLAHKALCTEKLEQWLCEKL
modifications: complex with oleic acid
- Ka, calcium association constant ([2]; 150 mM NaCl (physiological salt)): 5.3.10^6 M^−1 and 5.3 · 10^6 M^−1
- Ka, calcium association constant ([2]; low salt (no added salt)): 5.9e+09 M⁻¹ and 5.9e+08 M⁻¹
- Kd ([2]; low salt): 1.7 nM
- calcium affinity, times lower than α-lactalbumin ([2]; no salt added): 3 times
- calcium affinity, times lower than α-lactalbumin ([2]; physiological salt concentration): 1.6 times
- Kd ([2]; physiological salt, 0.15 M NaCl): 190 nM
- Ca2+ binding [2]: shown to bind Ca^2+
- loss of cell viability (L1210 leukaemia cells [3]): died rapidly
- apoptosis induction (L1210 leukaemia cells [3]; L1210, HAMLET 0.3 mg (0.3 mg/ml)): induced apoptosis; also recorded: sufficient to kill the cells by apoptosis
- cell viability (L1210 leukaemia cells [3]; [8]): 0%
- LD50 (L1210 leukaemia cells [3]): 0.2 mg/mL
- apoptosis induction / biological activity (L1210 leukaemia cells [3]): cause apoptosis
- DNA fragmentation (L1210 leukaemia cells [4]): DNA fragmentation was induced
- DNA fragmentation (L1210 leukaemia cells [4]; listed as C18:1:9cis complex): DNA fragmentation was observed

B2: C18:1:11cis complex: complex of apo-α-lactalbumin with C18:1:11cis fatty acid eluted after 1M NaCl (protein, UniProt P00709 20-142, looked up)
Alpha-lactalbumin: KQFTKCELSQLLKDIDGYGGIALPELICTMFHTSGYDTQAIVENNESTEYGLFQISNKLWCKSSQVPQSRNICDISCDKFLDDDITDDIMCAKKILDIKGIDYWLAHKALCTEKLEQWLCEKL
modifications: complex with C18:1:11cis fatty acid
notes: complex of apo-α-lactalbumin with C18:1:11cis fatty acid eluted after 1M NaCl
- cell viability (L1210 leukaemia cells [3]; [8]): 0%
- apoptosis induction / biological activity (L1210 leukaemia cells [3]): cause apoptosis
- DNA fragmentation (L1210 leukaemia cells [4]): DNA fragmentation was observed

B3: D87A: bovine α-lactalbumin with aspartic acid at position 87 substituted by alanine (protein, UniProt P00711 20-142, looked up, variant D87A)
Alpha-lactalbumin: EQLTKCEVFRELKDLKGYGGVSLPEWVCTTFHTSGYDTQAIVQNNDSTEYGLFQINNKIWCKDDQNPHSSNICNISCDKFLDDDLTADIMCVKKILDKVGINYWLAHKALCSEKLDQWLCEKL
- apoptosis induction / biological activity (L1210 leukaemia cells [3]): biologically inactive
- calcium binding [5]: did not bind calcium
- calcium binding [1]: totally abolished calcium binding

B4: D87N: bovine α-lactalbumin with aspartic acid at position 87 substituted by asparagine (protein, UniProt P00711 20-142, looked up, variant D87N)
Alpha-lactalbumin: EQLTKCEVFRELKDLKGYGGVSLPEWVCTTFHTSGYDTQAIVQNNDSTEYGLFQINNKIWCKDDQNPHSSNICNISCDKFLDDDLTNDIMCVKKILDKVGINYWLAHKALCSEKLDQWLCEKL
- apoptosis induction / biological activity (L1210 leukaemia cells [3]): biologically inactive
- calcium binding [1]: still bound calcium but with lower affinity

B5: D87A-BAMLET: protein-lipid complex of D87A mutant bovine α-lactalbumin eluted from C18:1 conditioned column (protein, UniProt P00711 20-142, looked up, variant D87A)
Alpha-lactalbumin: EQLTKCEVFRELKDLKGYGGVSLPEWVCTTFHTSGYDTQAIVQNNDSTEYGLFQINNKIWCKDDQNPHSSNICNISCDKFLDDDLTADIMCVKKILDKVGINYWLAHKALCSEKLDQWLCEKL
modifications: complex with C18:1 fatty acid
notes: protein-lipid complex of D87A mutant bovine α-lactalbumin eluted from C18:1 conditioned column
- Ca2+ binding [2]: no difference compared to the titration of quin 2 alone; also recorded: does not bind Ca^2+
- cell viability (L1210 leukaemia cells [3]; [9]): 13%
- LD50 (L1210 leukaemia cells [3]): 0.4 mg/mL
- DNA fragmentation (L1210 leukaemia cells [4]): induced DNA fragmentation similar to the BAMLET control

B6: D87N-BAMLET: protein-lipid complex of D87N mutant bovine α-lactalbumin eluted from C18:1 conditioned column (protein, UniProt P00711 20-142, looked up, variant D87N)
Alpha-lactalbumin: EQLTKCEVFRELKDLKGYGGVSLPEWVCTTFHTSGYDTQAIVQNNDSTEYGLFQINNKIWCKDDQNPHSSNICNISCDKFLDDDLTNDIMCVKKILDKVGINYWLAHKALCSEKLDQWLCEKL
modifications: complex with C18:1 fatty acid
notes: protein-lipid complex of D87N mutant bovine α-lactalbumin eluted from C18:1 conditioned column
- cell viability (L1210 leukaemia cells [3]; [9]): 17%
- LD50 (L1210 leukaemia cells [3]): 0.4 mg/mL
- DNA fragmentation (L1210 leukaemia cells [4]): induced DNA fragmentation similar to the BAMLET control

B7: αlac goat: goat α-lactalbumin (protein, UniProt P00712 20-142, looked up)
Alpha-lactalbumin: EQLTKCEVFQKLKDLKDYGGVSLPEWVCTAFHTSGYDTQAIVQNNDSTEYGLFQINNKIWCKDDQNPHSRNICNISCDKFLDDDLTDDIVCAKKILDKVGINYWLAHKALCSEKLDQWLCEKL
- Ka [1, 6]: 2.8e+08 M⁻¹
- Ka [1, 7]: 5.7e+08 M⁻¹
